Assay [1] has as its target T1, human IL-1β (human, UniProt P01584 117-269, biotinylated in the ELISA (site not stated)).
T1 construct: also called hIL-1β; Human mature IL-1β
Briefly: ELISA: antibody captured on anti-human Fc, biotinylated antigen titrated. How it is done:
(§1) To determine if the anti-IL-1β mAbs bind to human IL-1β, ELISA plates (Nunc, MaxiSorp, Rochester, N.Y.) were incubated overnight at 4° C. with anti-human Fc antibody diluted in Pierce Coat buffer at 2 μg/ml (Jackson Immunoresearch, West Grove, Pa.). Plates were washed five times in washing buffer (PBS containing 0.05% Tween 20), and blocked for 1 hour at 25° C. with 200 μl per well superblock blocking buffer (Thermo scientific, No. 37515). Blocking buffer was removed by tapping plates, and 2 μg/ml of each antibody in PBS containing 10% Superblock, 0.5% Tween-20 was added to the wells at 100 μl/well and incubated at 25° C. for 1 hour. The wells were washed five times in 1×PBST, and 1 μg/ml biotinylated antigen was titrated at 1:6 serial dilutions (for a range of μg to pg in PBS containing 10% Superblock, 0.05% Tween 20). Each dilution of antigen was then added to the plates and incubated for 1 hour at 25° C. […] The wells were washed five times in 1×PBST, and 100 μl of ULTRA-TMB ELISA (Pierce, Rockford, Ill.) were added per well. Following color development the reaction was stopped with 1N HCL and absorbance at 450 nm was measured.

In assay [2] the target is T2, human IL-1α (human, UniProt P01583 113-271, biotinylated in the ELISA (site not stated)).
T2 sequence: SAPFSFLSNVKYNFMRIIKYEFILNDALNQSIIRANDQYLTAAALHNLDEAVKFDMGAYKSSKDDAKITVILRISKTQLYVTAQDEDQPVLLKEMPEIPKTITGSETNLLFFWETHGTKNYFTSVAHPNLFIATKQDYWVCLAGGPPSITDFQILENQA
In words: cell-based or functional assay.

For assay [3], the target named is T1, human IL-1β. In words: cell-based or functional assay.
In assay [4] the target is T2, human IL-1α. In words: SPR (Biacore), DVD-Ig captured, antigen in solution. For orientation: Surface plasmon resonance follows binding to a sensor surface in real time, without labels.
The target in assay [5] is T3, cynomolgus IL-1α (cynomolgus, UniProt P79340 113-271).
T3 construct: also called cyno IL-1α; Cyno IL-1α
T3 sequence (looked up): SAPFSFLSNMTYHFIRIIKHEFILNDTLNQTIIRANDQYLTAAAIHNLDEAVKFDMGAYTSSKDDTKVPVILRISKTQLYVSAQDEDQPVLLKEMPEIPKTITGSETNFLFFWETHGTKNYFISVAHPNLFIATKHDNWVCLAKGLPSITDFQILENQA
Described as above.

Assay [6] deals with T2, human IL-1α. In words: ELISA: DVD-Ig captured on anti-human Fc, biotinylated antigen titrated. As for the experimental part: as §1
(§2) IL-1β and IL-1α binding by IL-1β/α DVD-Ig binding proteins was assessed by ELISA (assay described above, Example 2.1).
Background: In an ELISA, binding on a coated surface is turned into a signal by an enzyme label.

Assay [7] deals with T3, cynomolgus IL-1α. Briefly: cell-based or functional assay.
For assay [8], the target named is T2, human IL-1α. In words: Biacore (SPR), sequential injections on captured DVD-Ig: IL-1α as 2nd injection, after IL-1β.
Assay [9] addresses T1, human IL-1β. Briefly: SPR (Biacore), DVD-Ig captured, antigen in solution.
For assay [10], the target named is T4, cynomolgus IL-1β (cynomolgus, UniProt P79182 117-268).
T4 construct: also called cyno IL-1β; Cyno IL-1β
T4 sequence (looked up): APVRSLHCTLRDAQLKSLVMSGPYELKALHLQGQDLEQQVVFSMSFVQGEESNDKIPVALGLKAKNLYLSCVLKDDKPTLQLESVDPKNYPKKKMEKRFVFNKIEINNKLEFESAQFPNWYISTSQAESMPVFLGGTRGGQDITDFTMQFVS
The assay is described as above.

The target of assay [11] is T1, human IL-1β. In words: ELISA: DVD-Ig captured on anti-human Fc, biotinylated antigen titrated. How it is done:
as §1, §2

Assay [12] has as its target T4, cynomolgus IL-1β. In words: cell-based or functional assay.

B1: E26.11 (antibody, V domains shown)
VH: EVQLVESGGGVVQPGRSLRLSCSASGFIFSRYDMSWVRQAPGKGLEWVAYISHGGAGTYYPDSVKGRFTISRDNSKNTLFLQMDSLRPEDTAVYYCARGGVYKGYFDVWGQGTPVTVSS
VL: DIQMTQSPSSLSASVGDRVTITCRASGNIHNYLTWYQQTPGKAPKLLIYNAKTLADGVPSRFSGSGSGTDYTFTISSLQPEDIATYYCQHFWSIPYTFGQGTKLQIT
In general, EC50 refers to the concentration that produces a half-maximal response. Lower therefore signals greater potency. B1 gave an EC50 in the assay with human IL-1β [1] of 14 pM. This lies in the picomolar range.

B2: X3-LL-E26.13 DVD-Ig (bispecific antibody, human IgG1, kappa, L234A L235A)
heavy: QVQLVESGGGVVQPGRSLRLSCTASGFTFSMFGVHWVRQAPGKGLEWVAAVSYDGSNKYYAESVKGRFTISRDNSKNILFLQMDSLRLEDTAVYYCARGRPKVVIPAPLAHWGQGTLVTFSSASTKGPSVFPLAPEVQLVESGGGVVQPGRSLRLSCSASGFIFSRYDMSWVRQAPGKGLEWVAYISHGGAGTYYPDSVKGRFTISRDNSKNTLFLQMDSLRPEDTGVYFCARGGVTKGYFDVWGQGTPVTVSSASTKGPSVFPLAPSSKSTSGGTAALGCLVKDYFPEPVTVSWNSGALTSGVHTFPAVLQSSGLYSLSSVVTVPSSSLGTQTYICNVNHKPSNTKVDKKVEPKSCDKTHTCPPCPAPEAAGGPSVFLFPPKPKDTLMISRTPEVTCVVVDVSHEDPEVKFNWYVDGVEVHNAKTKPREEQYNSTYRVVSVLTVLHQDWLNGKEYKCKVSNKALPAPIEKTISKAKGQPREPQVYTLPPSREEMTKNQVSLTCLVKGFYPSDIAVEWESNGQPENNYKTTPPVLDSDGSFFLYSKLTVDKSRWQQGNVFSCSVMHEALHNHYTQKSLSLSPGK
light: DIQMTQSPSSVSASVGDRVTITCRASQGISSWLAWYQQKPGKAPKLLIYEASNLETGVPSRFSGSGSGSDFTLTISSLQPEDFATYYCQQTSSFLLSFGGGTKVEHKRTVAAPSVFIFPPDIQMTQSPSSLSASVGDRVTITCRASGNIHNYLTWYQQTPGKAPKLLIYNAKTLADGVPSRFSGSGSGTDYTFTISSLQPEDIATYYCQHFWSIPYTFGQGTKLQITRTVAAPSVFIFPPSDEQLKSGTASVVCLLNNFYPREAKVQWKVDNALQSGNSQESVTEQDSKDSTYSLSSTLTLSKADYEKHKVYACEVTHQGLSSPVTKSFNRGEC
As for B2, the “Potency (pM): neutralization of IL-1-induced hIL-8 in MRC5 cells” value (“Potency (pM): neutralization” for short) with human IL-1α [2] was determined as 8.9 pM; with human IL-1β [3] it was 1470 pM.

B3: E26.13-LL-X3 DVD-Ig (bispecific antibody, human IgG1, kappa, L234A L235A)
heavy: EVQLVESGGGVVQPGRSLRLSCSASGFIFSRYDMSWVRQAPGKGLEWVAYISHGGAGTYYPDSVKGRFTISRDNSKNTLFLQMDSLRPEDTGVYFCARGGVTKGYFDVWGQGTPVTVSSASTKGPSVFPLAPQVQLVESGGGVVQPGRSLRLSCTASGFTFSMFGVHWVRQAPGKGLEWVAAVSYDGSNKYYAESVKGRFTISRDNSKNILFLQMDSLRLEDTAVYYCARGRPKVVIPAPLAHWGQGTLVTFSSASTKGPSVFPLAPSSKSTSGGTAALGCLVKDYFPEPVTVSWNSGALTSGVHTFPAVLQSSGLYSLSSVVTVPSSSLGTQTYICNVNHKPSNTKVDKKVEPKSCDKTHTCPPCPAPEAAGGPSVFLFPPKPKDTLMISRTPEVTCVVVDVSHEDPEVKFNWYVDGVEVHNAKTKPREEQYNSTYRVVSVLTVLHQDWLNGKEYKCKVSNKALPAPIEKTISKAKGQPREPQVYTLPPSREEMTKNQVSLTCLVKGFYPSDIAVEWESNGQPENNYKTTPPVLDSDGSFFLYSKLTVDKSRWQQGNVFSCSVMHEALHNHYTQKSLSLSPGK
light: DIQMTQSPSSLSASVGDRVTITCRASGNIHNYLTWYQQTPGKAPKLLIYNAKTLADGVPSRFSGSGSGTDYTFTISSLQPEDIATYYCQHFWSIPYTFGQGTKLQITRTVAAPSVFIFPPDIQMTQSPSSVSASVGDRVTITCRASQGISSWLAWYQQKPGKAPKLLIYEASNLETGVPSRFSGSGSGSDFTLTISSLQPEDFATYYCQQTSSFLLSFGGGTKVEHKRTVAAPSVFIFPPSDEQLKSGTASVVCLLNNFYPREAKVQWKVDNALQSGNSQESVTEQDSKDSTYSLSSTLTLSKADYEKHKVYACEVTHQGLSSPVTKSFNRGEC
notes: Dual variable domain immunoglobulin
The Kd is the constant that tells how readily two partners part at equilibrium. Read a low Kd as higher affinity. In general, koff refers to the rate constant with which the complex falls apart. Lower therefore signals slow dissociation. As a reminder, the kon is a measure of how fast the partners come together. A high value points to fast association. In the assay with human IL-1α [4], B3 returned a Kd of 6.15 pM, a koff of 3.9e-06 s⁻¹ and a kon of 646000 M⁻¹ s⁻¹. In the assay with cynomolgus IL-1α [5], this molecule yielded a Kd of 3240 pM, a koff of 0.00105 s⁻¹ and an association rate constant (kon) of 315000 M⁻¹ s⁻¹. Further, in the assay with human IL-1α [6], the EC50 came out at 5.8 pM. In addition, the “Potency (pM): neutralization” value with human IL-1α [2] was found to be 10.2 pM. Moreover, the “Potency (pM): neutralization” value in the assay with cynomolgus IL-1α [7] was 1050 pM.

B4: X3-SS-E26.13 DVD-Ig (bispecific antibody, human IgG1, kappa, L234A L235A)
heavy: not shown
light: DIQMTQSPSSVSASVGDRVTITCRASQGISSWLAWYQQKPGKAPKLLIYEASNLETGVPSRFSGSGSGSDFTLTISSLQPEDFATYYCQQTSSFLLSFGGGTKVEHKRTVAAPDIQMTQSPSSLSASVGDRVTITCRASGNIHNYLTWYQQTPGKAPKLLIYNAKTLADGVPSRFSGSGSGTDYTFTISSLQPEDIATYYCQHFWSIPYTFGQGTKLQITRTVAAPSVFIFPPSDEQLKSGTASVVCLLNNFYPREAKVQWKVDNALQSGNSQESVTEQDSKDSTYSLSSTLTLSKADYEKHKVYACEVTHQGLSSPVTKSFNRGEC
notes: as for B3
B4 yielded an EC50 with human IL-1α [6] of 4.5 pM.

B5: E26.13-SS-X3 DVD-Ig (bispecific antibody, human IgG1, kappa, L234A L235A)
heavy: not shown
light: DIQMTQSPSSLSASVGDRVTITCRASGNIHNYLTWYQQTPGKAPKLLIYNAKTLADGVPSRFSGSGSGTDYTFTISSLQPEDIATYYCQHFWSIPYTFGQGTKLQITRTVAAPDIQMTQSPSSVSASVGDRVTITCRASQGISSWLAWYQQKPGKAPKLLIYEASNLETGVPSRFSGSGSGSDFTLTISSLQPEDFATYYCQQTSSFLLSFGGGTKVEHKRTVAAPSVFIFPPSDEQLKSGTASVVCLLNNFYPREAKVQWKVDNALQSGNSQESVTEQDSKDSTYSLSSTLTLSKADYEKHKVYACEVTHQGLSSPVTKSFNRGEC
notes: as for B3
For B5, the Kd stood at 7.61 pM with human IL-1α [4] and 4110 pM in the assay with cynomolgus IL-1α [5]. In the assay with human IL-1α [8], this molecule displayed a stoichiometry of 1.6.

B6: E26.35-SS-X3 DVD-Ig (bispecific antibody, human IgG1, kappa, L234A L235A)
heavy: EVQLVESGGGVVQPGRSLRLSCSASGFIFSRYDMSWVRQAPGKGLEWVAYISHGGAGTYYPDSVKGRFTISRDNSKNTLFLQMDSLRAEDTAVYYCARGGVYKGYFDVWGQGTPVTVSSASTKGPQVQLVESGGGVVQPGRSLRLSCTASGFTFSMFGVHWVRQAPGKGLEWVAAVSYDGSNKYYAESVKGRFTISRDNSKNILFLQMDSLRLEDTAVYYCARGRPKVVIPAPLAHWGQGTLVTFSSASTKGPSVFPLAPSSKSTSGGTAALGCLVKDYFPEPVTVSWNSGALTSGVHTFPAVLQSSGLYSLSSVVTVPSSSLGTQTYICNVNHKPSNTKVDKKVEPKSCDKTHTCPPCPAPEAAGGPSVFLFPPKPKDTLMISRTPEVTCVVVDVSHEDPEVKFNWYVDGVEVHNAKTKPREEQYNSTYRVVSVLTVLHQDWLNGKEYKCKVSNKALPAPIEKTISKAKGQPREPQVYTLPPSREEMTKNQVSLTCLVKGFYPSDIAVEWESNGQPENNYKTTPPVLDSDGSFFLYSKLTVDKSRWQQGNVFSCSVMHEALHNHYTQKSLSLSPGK
light: DIQMTQSPSSLSASVGDRVTITCRASGNIHNYLTWYQQTPGKAPKLLIYNAKTLADGVPSRFSGSGSGTDYTFTISSLQPEDIATYYCQHFWSIPYTFGQGTKLQITRTVAAPDIQMTQSPSSVSASVGDRVTITCRASQGISSWLAWYQQKPGKAPKLLIYEASNLETGVPSRFSGSGSGSDFTLTISSLQPEDFATYYCQQTSSFLLSFGGGTKVEHKRTVAAPSVFIFPPSDEQLKSGTASVVCLLNNFYPREAKVQWKVDNALQSGNSQESVTEQDSKDSTYSLSSTLTLSKADYEKHKVYACEVTHQGLSSPVTKSFNRGEC
notes: as for B3
As for B6, the Kd amounted to 13.3 pM with human IL-1α [4], 5.03 pM with human IL-1β [9], 3270 pM with cynomolgus IL-1α [5] and 10.6 pM with cynomolgus IL-1β [10]. Further, the off-rate (koff) is 2.14e-06 s⁻¹ with human IL-1α [4], 6.81e-06 s⁻¹ in the assay with human IL-1β [9], 0.000236 s⁻¹ with cynomolgus IL-1α [5] and 1.94e-05 s⁻¹ with cynomolgus IL-1β [10]. The kon with human IL-1α [4] was determined as 162000 M⁻¹ s⁻¹; in the assay with human IL-1β [9], 1.32e+06 M⁻¹ s⁻¹; with cynomolgus IL-1α [5], 72400 M⁻¹ s⁻¹; with cynomolgus IL-1β [10] it was 1.84e+06 M⁻¹ s⁻¹. The EC50 with human IL-1α [6] amounted to 6.2 pM; with human IL-1β [11], 8 pM. Further, the “Potency (pM): neutralization” value amounted to 25.8 pM in the assay with human IL-1α [2], 1.8 pM in the assay with human IL-1β [3], 474 pM in the assay with cynomolgus IL-1α [7] and 0.6 pM with cynomolgus IL-1β [12].

B7: E26.35-SS-X3 JM DVD-Ig (bispecific antibody, human IgG1, kappa, L234A L235A)
heavy: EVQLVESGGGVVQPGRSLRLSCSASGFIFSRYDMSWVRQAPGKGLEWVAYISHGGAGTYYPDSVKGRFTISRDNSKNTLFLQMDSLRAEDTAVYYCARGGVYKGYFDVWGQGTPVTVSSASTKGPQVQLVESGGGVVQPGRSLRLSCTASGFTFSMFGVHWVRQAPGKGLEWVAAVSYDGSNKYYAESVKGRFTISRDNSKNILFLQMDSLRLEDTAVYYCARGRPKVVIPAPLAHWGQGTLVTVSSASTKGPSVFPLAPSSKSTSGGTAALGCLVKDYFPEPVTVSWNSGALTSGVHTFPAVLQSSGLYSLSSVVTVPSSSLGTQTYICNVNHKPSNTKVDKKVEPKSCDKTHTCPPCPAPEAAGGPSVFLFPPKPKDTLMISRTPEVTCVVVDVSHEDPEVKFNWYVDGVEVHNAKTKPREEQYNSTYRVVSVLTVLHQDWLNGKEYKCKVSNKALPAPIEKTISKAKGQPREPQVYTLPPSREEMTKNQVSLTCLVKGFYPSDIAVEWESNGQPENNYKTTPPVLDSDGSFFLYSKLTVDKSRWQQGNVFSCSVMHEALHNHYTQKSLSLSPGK
light: DIQMTQSPSSLSASVGDRVTITCRASGNIHNYLTWYQQTPGKAPKLLIYNAKTLADGVPSRFSGSGSGTDYTFTISSLQPEDIATYYCQHFWSIPYTFGQGTKLQITRTVAAPDIQMTQSPSSVSASVGDRVTITCRASQGISSWLAWYQQKPGKAPKLLIYEASNLETGVPSRFSGSGSGSDFTLTISSLQPEDFATYYCQQTSSFLLSFGGGTKVEIKRTVAAPSVFIFPPSDEQLKSGTASVVCLLNNFYPREAKVQWKVDNALQSGNSQESVTEQDSKDSTYSLSSTLTLSKADYEKHKVYACEVTHQGLSSPVTKSFNRGEC
notes: Dual variable domain immunoglobulin; X3 is mutated in the J-region (X3 JM)
Regarding B7, the EC50 with human IL-1α [6] amounted to 4 pM; with human IL-1β [11] it was 6.3 pM.

B8: E26.13-SS-X3 JM DVD-Ig (bispecific antibody, human IgG1, kappa, L234A L235A)
heavy: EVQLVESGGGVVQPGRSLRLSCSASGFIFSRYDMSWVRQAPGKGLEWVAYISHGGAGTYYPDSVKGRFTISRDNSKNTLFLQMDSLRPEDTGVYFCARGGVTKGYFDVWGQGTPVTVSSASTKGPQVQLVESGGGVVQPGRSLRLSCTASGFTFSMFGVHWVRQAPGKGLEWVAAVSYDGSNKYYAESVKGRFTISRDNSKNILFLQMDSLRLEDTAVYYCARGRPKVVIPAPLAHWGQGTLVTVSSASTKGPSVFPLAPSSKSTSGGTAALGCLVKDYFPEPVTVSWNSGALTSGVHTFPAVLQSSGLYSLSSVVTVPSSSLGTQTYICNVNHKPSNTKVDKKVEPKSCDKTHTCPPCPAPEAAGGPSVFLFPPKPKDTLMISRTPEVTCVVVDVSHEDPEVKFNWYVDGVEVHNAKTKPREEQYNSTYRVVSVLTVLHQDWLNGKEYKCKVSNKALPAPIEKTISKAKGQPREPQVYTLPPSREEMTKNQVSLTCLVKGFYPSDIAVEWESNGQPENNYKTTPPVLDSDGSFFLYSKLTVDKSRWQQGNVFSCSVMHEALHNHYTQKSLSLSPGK
light: DIQMTQSPSSLSASVGDRVTITCRASGNIHNYLTWYQQTPGKAPKLLIYNAKTLADGVPSRFSGSGSGTDYTFTISSLQPEDIATYYCQHFWSIPYTFGQGTKLQITRTVAAPDIQMTQSPSSVSASVGDRVTITCRASQGISSWLAWYQQKPGKAPKLLIYEASNLETGVPSRFSGSGSGSDFTLTISSLQPEDFATYYCQQTSSFLLSFGGGTKVEIKRTVAAPSVFIFPPSDEQLKSGTASVVCLLNNFYPREAKVQWKVDNALQSGNSQESVTEQDSKDSTYSLSSTLTLSKADYEKHKVYACEVTHQGLSSPVTKSFNRGEC
notes: as for B7
The molecule B8 showed an EC50 in the assay with human IL-1α [6] of 4.3 pM. In addition, the “Potency (pM): neutralization” value in the assay with human IL-1α [2] was determined as 26.5 pM; in the assay with cynomolgus IL-1α [7], 1880 pM; with cynomolgus IL-1β [12] it was 17.6 pM.

(Values after US20140348838A1 (AbbVie / Abbott, published 2014).)
